According to PMC4932919, “Structural and functional studies of the glycoside hydrolase family 3 β-glucosidase Cel3A from the moderately thermophilic fungus Rasamsonia emersonii” (Acta Crystallographica. Section D, Structural Biology, 2016):

How the values were obtained:
HjCel3A = target: T1, HjCel3A (Trichoderma reesei, UniProt Q12715); assay: differential scanning calorimetry; assay type: binding; settings: 1000 µM; 1 mM glucose; 10 mM sodium acetate pH 5.0; Tm without glucose 77.6 °C; scan rate 200°C/h; irreversible unfolding
T1 construct: gene bgl1
T1 sequence (Q12715 20-744): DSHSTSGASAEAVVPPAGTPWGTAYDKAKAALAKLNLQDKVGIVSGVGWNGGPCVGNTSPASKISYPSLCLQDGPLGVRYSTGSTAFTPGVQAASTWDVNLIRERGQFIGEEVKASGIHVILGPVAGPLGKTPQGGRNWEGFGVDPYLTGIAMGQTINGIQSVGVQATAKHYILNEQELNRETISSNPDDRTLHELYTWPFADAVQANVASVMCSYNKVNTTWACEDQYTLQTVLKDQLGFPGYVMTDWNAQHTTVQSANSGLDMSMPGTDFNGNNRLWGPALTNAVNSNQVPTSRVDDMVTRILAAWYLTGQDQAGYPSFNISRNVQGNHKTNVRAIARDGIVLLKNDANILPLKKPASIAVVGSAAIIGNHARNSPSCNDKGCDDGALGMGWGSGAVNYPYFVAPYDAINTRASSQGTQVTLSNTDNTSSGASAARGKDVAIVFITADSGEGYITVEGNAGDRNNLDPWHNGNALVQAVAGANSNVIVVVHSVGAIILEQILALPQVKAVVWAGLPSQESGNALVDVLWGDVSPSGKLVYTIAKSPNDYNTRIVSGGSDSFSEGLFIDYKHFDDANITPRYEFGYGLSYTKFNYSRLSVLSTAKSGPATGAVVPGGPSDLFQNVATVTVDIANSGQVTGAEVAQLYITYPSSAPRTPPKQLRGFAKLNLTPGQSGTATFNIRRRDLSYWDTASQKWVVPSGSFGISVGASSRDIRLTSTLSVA
Source text: differential scanning calorimetry on HjCel3A

[1] = target: β-glucosidase Cel3A from Rasamsonia emersonii (Rasamsonia emersonii); assay: SEC; gel-filtration characterization of purified ReCel3A; conditions of this run not told
purified protein [2] = substrate: O=[N+]([O-])c1ccc(O[C@@H]2O[C@H](CO)[C@@H](O)[C@H](O)[C@H]2O)cc1; assay: purified protein; settings: 100 mM phosphate pH 5.0, 37°C
[3] = substrate: O=[N+]([O-])c1ccc(O[C@@H]2OC[C@@H](O)[C@H](O)[C@H]2O)c(Cl)c1; assay: chromogenic substrate kinetics (method for CNPX not described); assay type: biochemical, Rasamsonia emersonii; settings: conditions for CNPX not stated, other chromogenic substrates pH 5.0, 37°C
purified protein [4] = substrate: O=[N+]([O-])c1ccc(O[C@@H]2O[C@H](CO)[C@@H](O)[C@H](O)[C@H]2O)c(Cl)c1; assay: purified protein; assay type: biochemical, Rasamsonia emersonii; settings: 100 mM phosphate pH 5.0, 37°C

## OC[C@H]1OC(O)[C@H](O)[C@@H](O)[C@@H]1O (some centres unmarked) [glucose]
HjCel3A
  T m (°C): 79.0 °C

## β-glucosidase Cel3A from Rasamsonia emersonii (enzyme)
[1]
  stoichiometry N: 2

B1: ReCel3A (Rasamsonia emersonii) (protein)
chain: NLAYSPPFYPSPWANGQGDWAEAYQKAVQFVSQLTLAEKVNLTTGTGWEQDRCVGQVGSIPRLGFPGLCMQDSPLGVRDTDYNSAFPAGVNVAATWDRNLAYRRGVAMGEEHRGKGVDVQLGPVAGPLGRSPDAGRNWEGFAPDPVLTGNMMASTIQGIQDAGVIACAKHFILYEQEHFRQGAQDGYDISDSISANADDKTMHELYLWPFADAVRAGVGSVMCSYNQVNNSYACSNSYTMNKLLKSELGFQGFVMTDWGGHHSGVGSALAGLDMSMPGDIAFDSGTSFWGTNLTVAVLNGSIPEWRVDDMAVRIMSAYYKVGRDRYSVPINFDSWTLDTYGPEHYAVGQGQTKINEHVDVRGNHAEIIHEIGAASAVLLKNKGGLPLTGTERFVGVFGKDAGSNPWGVNGCSDRGCDNGTLAMGWGSGTANFPYLVTPEQAIQREVLSRNGTFTGITDNGALAEMAAAASQADTCLVFANADSGEGYITVDGNEGDRKNLTLWQGADQVIHNVSANCNNTVVVLHTVGPVLIDDWYDHPNVTAILWAGLPGQESGNSLVDVLYGRVNPGKTPFTWGRARDDYGAPLIVKPNNGKGAPQQDFTEGIFIDYRRFDKYNITPIYEFGFGLSYTTFEFSQLNVQPINAPPYTPASGFTKAAQSFGQPSNASDNLYPSDIERVPLYIYPWLNSTDLKASANDPDYGLPTEKYVPPNATNGDPQPIDPAGGAPGGNPSLYEPVARVTTIITNTGKVTGDEVPQLYVSLGGPDDAPKVLRGFDRITLAPGQQYLWTTTLTRRDISNWDPVTQNWVVTNYTKTIYVGNSSRNLPLQAPLKPYPGI
notes: secreted mature protein, signal peptide 1-20 removed; codon-optimized gene expressed in Hypocrea jecorina RL-P37 derivative with four cellulases deleted; no tag; N-glycosylated; dimer in solution; visible residues Asp21-Pro855
Purified protein [2]
  Km: 400 µM
  kcat: 5.4 s⁻¹
  kcat/Km: 14000 M⁻¹ s⁻¹
[3]
  Km: 660 µM
  kcat: 0.23 s⁻¹
  kcat/Km: 350 M⁻¹ s⁻¹
Purified protein [4]
  Km: 400 µM
  kcat: 14 s⁻¹
  kcat/Km: 36000 M⁻¹ s⁻¹
